“And” between values parts separate entries of the source, which are not always exact repeats. Identical values can stand only once. Like-named read-outs stand apart in the source and are kept apart here.
Legend:
[1] = molecular target: T1, SARS-CoV-2-S1 (RBD)-His protein (Trenzyme) (SARS-CoV-2, UniProt P0DTC2 319-541); assay: competition ELISA, RBD binding to coated ACE2; IgG1
[2] = molecular target: T1, SARS-CoV-2-S1 (RBD)-His protein …; assay: direct ELISA on coated RBD-His (FIG. 1C); IgG1
[3] = molecular target: T1, SARS-CoV-2-S1 (RBD)-His protein …; assay: direct ELISA on coated RBD-His
[4] = molecular target: T1, SARS-CoV-2-S1 (RBD)-His protein …
[5] = molecular target: T1, SARS-CoV-2-S1 (RBD)-His protein …; assay: competition ELISA, RBD binding to coated ACE2
[6] = molecular target: T1, SARS-CoV-2-S1 (RBD)-His protein …; assay: direct ELISA on coated RBD-His; remark: listed apart in the source
[7] = molecular target: T1, SARS-CoV-2-S1 (RBD)-His protein …; remark: listed apart in the source
[8] = molecular target: SARS-CoV-2 Spike Protein (S1+S2 ECD, His-Tag) (Sino 40589-V08B1) (SARS-CoV-2, UniProt P0DTC2 14-1213)
[9] = molecular target: T1, SARS-CoV-2-S1 (RBD)-His protein …; remark: listed apart in the source
[10] = molecular target: T2, MERS-CoV Spike protein fragment (RBD, aa 367-606, His tag) (MERS-CoV, UniProt K9N5Q8 367-606); assay: iQue flow cytometry, antigen-coated beads
T2 sequence: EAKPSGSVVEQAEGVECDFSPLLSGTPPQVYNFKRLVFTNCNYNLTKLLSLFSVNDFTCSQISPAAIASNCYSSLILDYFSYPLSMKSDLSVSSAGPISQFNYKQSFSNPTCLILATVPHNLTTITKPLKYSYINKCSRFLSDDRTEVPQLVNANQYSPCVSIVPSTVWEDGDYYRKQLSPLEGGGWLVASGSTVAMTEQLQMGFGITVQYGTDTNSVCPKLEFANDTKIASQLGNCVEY

[11] = molecular target: recombinant SARS-CoV Spike protein (RBD, His tag) (SARS-CoV, UniProt P59594 306-527); assay: iQue flow cytometry, antigen-coated beads
[12] = molecular target: T1, SARS-CoV-2-S1 (RBD)-His protein …; assay: iQue flow cytometry, antigen-coated beads
[13] = molecular target: SARS-CoV-2 Spike (S) protein on vesicular stomatitis virus (VSV) pseudoviruses (SARS-CoV-2, UniProt P0DTC2 14-1273); assay: cell-based or functional assay
[14] = molecular target: T3, BSA (Sigma-Aldrich) (bovine, UniProt P02769 25-607); assay: direct ELISA on coated BSA
T3 construct: also called bovine serum albumin; BSA control

[15] = molecular target: T1, SARS-CoV-2-S1 (RBD)-His protein …; assay: competition ELISA, RBD binding to coated ACE2; remark: listed apart in the source

B1: NI-607.649_B11 (antibody, V domains shown)
VH: QVQLVQSGAEVKKPGSSVKVSCKASGGTFSNYAISWVRQAPGQGLEWMGGIIPIFGTANYAQKFQGRVTITADESTSTAYMELSSLRSEDTAVYYCAGDRWYYDSSGYPTPDEYFQHWGQGTQVTVSS
VL: QSVLTQPPSVSGAPGQRVTISCTGSSSNIGAGYDVHWYQQLPGTAPKLLIYGNSNRPSGVPDRFSGSKSGTSASLAITGLQAEDEADYYCQSYDSSLSGVVFGGGTKLTVL
IC50 [1]: ~0.052 µg/mL
EC50 [2]: ~0.013 nM
EC50 [3]: ~0.021 nM
EC50 [4]: 0.036 nM
IC50 [5]: 0.08 nM
EC50 [6]: 0.027 nM
IC50 (read off the curve) [7]: ~0.04 µg/mL
EC50 (read off the curve) [8]: ~0.5 nM
EC50 (read off the curve) [9]: ~4 nM
EC50 [10]: 1000 nM
EC50 [11]: 1.7 nM
EC50 [12]: 1.4 nM
IC50, pseudovirus entry assay (luciferase, HEK 293T-ACE2 cells) [13]: 232 ng/mL and 1.53 nM

B2: NI-607.532_D3 (antibody, V domains shown)
VH: EVQLVQSGAEVKRPGASVKVSCKASGYHFTDYYIHWVRQAPGQGLEWMGWINPNSGGTNYAQKFQGRVTMTRDTSISTAYMELSRLRSDDTAVYYCARVYYYDSSSSADYWGQGTLVTVSS
VL: not shown
IC50 [5]: 0.917 nM
EC50 [6]: 0.0049 nM
binding result [14]: no binding (tested: 400 nM)
EC50 [10]: 1000 nM
EC50 [11]: 1000 nM
EC50 [12]: 1 nM
IC50 [15]: ~0.457 µg/mL and ~3 nM
IC50, pseudovirus entry assay (luciferase, HEK 293T-ACE2 cells) [13]: 2.1 µg/mL

B3: NI-607.531_C8 (antibody, V domains shown)
VH: EVQLVESGGGVVQPGRSLRLSCTASGFTFSFYSVHWVRQAPGKGLEWVAVISYDGSTKYYADSVKGRFTISRDNSKNTLYLQMDSLRTEDTAVYYCASPPISPIPAAGTPLAYWGQGTLVTVSS
VL: not shown
IC50 [1]: ~0.132 µg/mL
EC50 [3]: ~0.017 nM
IC50 [5]: 0.153 nM
EC50 [6]: 0.011 nM
IC50 (read off the curve) [7]: ~0.03 µg/mL
EC50 [10]: 1000 nM
EC50 [11]: 1000 nM
EC50 [12]: 1.2 nM
IC50, pseudovirus entry assay (luciferase, HEK 293T-ACE2 cells) [13]: 86.4 ng/mL and 0.572 nM

B4: NI-607.429_E4 (antibody, V domains shown)
VH: QVQLVESGGGLVQPGGSLRLSCAASGFTVSSNYMSWVRQAPGKGLEWVSVIYSGGSTFYADSVKGRFTISRDNSKNTLYLQMNSLRAEDTAVYYCARDLQESGMDVWGQGTTVTVSS
VL: DIQLTQSPSSVSASVGDRVTITCRASQGISSWLAWYQQKPGKAPKLLIYAASSLQSGVPSRFSGSGSGTDFTLTISSLQPEDFATYYCQQANSFPTFGQGTRLEIK
IC50 [5]: 0.275 nM
EC50 [6]: 0.0086 nM
binding result [14]: no binding (tested: 400 nM)
EC50 [10]: 200 nM
EC50 [12]: 1.9 nM
IC50 [15]: ~0.345 µg/mL and ~2.3 nM
IC50, pseudovirus entry assay (luciferase, HEK 293T-ACE2 cells) [13]: 0.035 µg/mL

B5: NI-607.532_C11 (antibody, V domains shown)
VH: QVQLVESGGGLIQPGGSLRLSCAASGFTVSSNYMSWVRQAPGKGLEWVSVIYSGGSTYYADSVKGRFTISRDNSKNTLFLQMNSLRAEDTAVYYCARDLQYYGMDVWGQGTTVTVSS
VL: DIQMTQSPSFLSASVGDRVTITCRASQGISSYLAWYQQKPGKAPKLLIYAASTLQSGVPSRFSGSGSGTEFTLTISSLQPEDFATYYCQQLDSYPPRDTFGQGTKVEIK
IC50 [5]: 0.826 nM
EC50 [6]: 0.013 nM
binding result [14]: no binding (tested: 400 nM)
EC50 [10]: 1000 nM
EC50 [12]: 2.4 nM
IC50 [15]: ~1.12 µg/mL and ~7.44 nM
IC50, pseudovirus entry assay (luciferase, HEK 293T-ACE2 cells) [13]: 0.0872 µg/mL

B6: NI-607.427_C5 (antibody, V domains shown)
VH: QVQLVQSGAEVKKPGASVKVSCKASGYTFTSYGISWVRQAPGQGLEWMGWISAYNGNTNYAQKLQGRVTMTTDTSTSTAYMELRSLRSDDTAVYYCARDNRAGWDQLDYWGQGTLVTVSS
VL: not shown
IC50 [5]: 2.88 nM
EC50 [6]: 0.014 nM
binding result [14]: no binding (tested: 400 nM)
EC50 [10]: 600 nM
EC50 [11]: 3 nM
EC50 [12]: 3.2 nM
IC50 [15]: ~2.15 µg/mL and ~14.3 nM
IC50, pseudovirus entry assay (luciferase, HEK 293T-ACE2 cells) [13]: > 100 µg/mL

B7: NI-607.532_F9 (antibody, V domains shown)
VH: EVQLVESGGNLIQPGGSLRLSCAASGFTVSSNYMSWVRQAPGKGLEWVSVIYSGGSTYYADSVKGRFTISRDNSRNTLYLQMNSLRAEDTAVYFCARDRVVRGVRGNGMDVWGQGTTVTVSS
VL: AIRMTQSPSSLSASVGDRVTITCQASQDINIYLNWYQQRPGKAPKLLIYDASNLETGVPSRFSGSGSGTDFTFTISSLQPEDIATYYCHQYDNLPRTFGQGTKVDIK
IC50 [5]: 0.775 nM
EC50 [6]: 0.0025 nM
EC50 [10]: 1000 nM
EC50 [11]: 1000 nM
EC50 [12]: 3.3 nM
IC50 [15]: ~0.668 µg/mL and ~4.4 nM
IC50, pseudovirus entry assay (luciferase, HEK 293T-ACE2 cells) [13]: 0.364 µg/mL

Source: US20230242624A1 (NEURIMMUNE, published 2023)
